Results: IntAct's records for PubMed 25910212

B1: CD151 antigen (Homo sapiens), P48509 (parent)
chain: MGEFNEKKTTCGTVCLKYLLFTYNCCFWLAGLAVMAVGIWTLALKSDYISLLASGTYLATAYILVVAGTVVMVTGVLGCCATFKERRNLLRLYFILLLIIFLLEIIAGILAYAYYQQLNTELKENLKDTMTKRYHQPGHEAVTSAVDQLQQEFHCCGSNNSQDWRDSEWIRSQEAGGRVVPDSCCKTVVALCGQRDHASNIYKVEGGCITKLETFIQEHLRVIGAVGIGIACVQVFGMIFTCCLYRSLKLEHY
B2: U4/U6 small nuclear ribonucleoprotein Prp31 (Homo sapiens), Q8WWY3 (parent)
chain: MSLADELLADLEEAAEEEEGGSYGEEEEEPAIEDVQEETQLDLSGDSVKTIAKLWDSKMFAEIMMKIEEYISKQAKASEVMGPVEAAPEYRVIVDANNLTVEIENELNIIHKFIRDKYSKRFPELESLVPNALDYIRTVKELGNSLDKCKNNENLQQILTNATIMVVSVTASTTQGQQLSEEELERLEEACDMALELNASKHRIYEYVESRMSFIAPNLSIIIGASTAAKIMGVAGGLTNLSKMPACNIMLLGAQRKTLSGFSSTSVLPHTGYIYHSDIVQSLPPDLRRKAARLVAAKCTLAARVDSFHESTEGKVGYELKDEIERKFDKWQEPPPVKQVKPLPAPLDGQRKKRGGRRYRKMKERLGLTEIRKQANRMSFGEIEEDAYQEDLGFSLGHLGKSGSGRVRQTQVNEATKARISKTLQRTLQKQSVVYGGKSTIRDRSSGTASSVAFTPLQGLEIVNPQAAEKKVAEANQKYFSSMAEFLKVKGEKSGLMST
partner: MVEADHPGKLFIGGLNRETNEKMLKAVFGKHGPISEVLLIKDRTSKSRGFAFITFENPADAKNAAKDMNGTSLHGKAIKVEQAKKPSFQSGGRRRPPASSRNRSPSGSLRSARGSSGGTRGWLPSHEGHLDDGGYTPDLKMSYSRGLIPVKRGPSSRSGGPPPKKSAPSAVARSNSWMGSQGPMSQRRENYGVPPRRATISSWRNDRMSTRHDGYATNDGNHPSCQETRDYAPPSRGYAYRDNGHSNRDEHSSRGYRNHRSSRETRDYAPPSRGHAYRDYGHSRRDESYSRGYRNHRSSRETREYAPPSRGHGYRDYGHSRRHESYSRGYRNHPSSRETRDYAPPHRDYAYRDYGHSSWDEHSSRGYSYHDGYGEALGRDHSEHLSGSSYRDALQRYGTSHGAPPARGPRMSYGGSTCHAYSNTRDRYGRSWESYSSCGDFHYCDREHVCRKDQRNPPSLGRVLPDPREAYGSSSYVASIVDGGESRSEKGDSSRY
B3: U4/U6 small nuclear ribonucleoprotein Prp3 (Homo sapiens), O43395 (parent)
chain: MALSKRELDELKPWIEKTVKRVLGFSEPTVVTAALNCVGKGMDKKKAADHLKPFLDDSTLRFVDKLFEAVEEGRSSRHSKSSSDRSRKRELKEVFGDDSEISKESSGVKKRRIPRFEEVEEEPEVIPGPPSESPGMLTKLQIKQMMEAATRQIEERKKQLSFISPPTPQPKTPSSSQPERLPIGNTIQPSQAATFMNDAIEKARKAAELQARIQAQLALKPGLIGNANMVGLANLHAMGIAPPKVELKDQTKPTPLILDEQGRTVDATGKEIELTHRMPTLKANIRAVKREQFKQQLKEKPSEDMESNTFFDPRVSIAPSQRQRRTFKFHDKGKFEKIAQRLRTKAQLEKLQAEISQAARKTGIHTSTRLALIAPKKELKEGDIPEIEWWDSYIIPNGFDLTEENPKREDYFGITNLVEHPAQLNPPVDNDTPVTLGVYLTKKEQKKLRRQTRREAQKELQEKVRLGLMPPPEPKVRISNLMRVLGTEAVQDPTKVEAHVRAQMAKRQKAHEEANAARKLTAEQRKVKKIKKLKEDISQGVHISVYRVRNLSNPAKKFKIEANAGQLYLTGVVVLHKDVNVVVVEGGPKAQKKFKRLMLHRIKWDEQTSNTKGDDDEESDEEAVKKTNKCVLVWEGTAKDRSFGEMKFKQCPTENMAREHFKKHGAEHYWDLALSESVLESTD
partner: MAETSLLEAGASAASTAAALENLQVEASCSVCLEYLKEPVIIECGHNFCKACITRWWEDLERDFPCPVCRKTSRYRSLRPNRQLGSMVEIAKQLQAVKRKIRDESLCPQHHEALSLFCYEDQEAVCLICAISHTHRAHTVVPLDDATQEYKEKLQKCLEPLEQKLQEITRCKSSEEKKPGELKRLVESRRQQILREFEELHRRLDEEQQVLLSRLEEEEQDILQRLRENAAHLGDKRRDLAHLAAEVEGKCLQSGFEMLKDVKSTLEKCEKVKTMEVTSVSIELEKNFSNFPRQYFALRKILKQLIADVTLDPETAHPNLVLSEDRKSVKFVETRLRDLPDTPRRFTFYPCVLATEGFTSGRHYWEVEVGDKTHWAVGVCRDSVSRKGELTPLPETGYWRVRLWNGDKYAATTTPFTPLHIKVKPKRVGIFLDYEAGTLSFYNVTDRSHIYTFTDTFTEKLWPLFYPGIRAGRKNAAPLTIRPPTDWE
B4: Neuromedin-B (Homo sapiens), P08949-2 (parent)
chain: MARRAGGARMFGSLLLFALLAAGVAPLSWDLPEPRSRASKIRVHSRGNLWATGHFMGKKSLEPSSPSPLGTAPHTSLRDQRLQLSHDLLGILLLKKALGVSLSRPAPQIQEAAGTNTAEMTPIMGQTQQRGLDCAHPGKVLNGTLLMAPSGCKS
B5: EF-hand domain-containing protein 1 (Homo sapiens), Q5JVL4 (parent)
chain: MVSNPVHGLPFLPGTSFKDSTKTAFHRSQTLSYRNGYAIVRRPTVGIGGDRLQFNQLSQAELDELASKAPVLTYGQPKQAPPADFIPAHVAFDKKVLKFDAYFQEDVPMSTEEQYRIRQVNIYYYLEDDSMSVIEPVVENSGILQGKLIKRQRLAKNDRGDHYHWKDLNRGINITIYGKTFRVVDCDQFTQVFLESQGIELNPPEKMALDPYTELRKQPLRKYVTPSDFDQLKQFLTFDKQVLRFYAIWDDTDSMYGECRTYIIHYYLMDDTVEIREVHERNDGRDPFPLLMNRQRVPKVLVENAKNFPQCVLEISDQEVLEWYTAKDFIVGKSLTILGRTFFIYDCDPFTRRYYKEKFGITDLPRIDVSKREPPPVKQELPPYNGFGLVEDSAQNCFALIPKAPKKDVIKMLVNDNKVLRYLAVLESPIPEDKDRRFVFSYFLATDMISIFEPPVRNSGIIGGKYLGRTKVVKPYSTVDNPVYYGPSDFFIGAVIEVFGHRFIILDTDEYVLKYMESNAAQYSPEALASIQNHVRKREAPAPEAESKQTEKDPGVQELEALIDTIQKQLKDHSCKDNIREAFQIYDKEASGYVDRDMFFKICESLNVPVDDSLVKELIRMCSHGEGKINYYNFVRAFSN
partner: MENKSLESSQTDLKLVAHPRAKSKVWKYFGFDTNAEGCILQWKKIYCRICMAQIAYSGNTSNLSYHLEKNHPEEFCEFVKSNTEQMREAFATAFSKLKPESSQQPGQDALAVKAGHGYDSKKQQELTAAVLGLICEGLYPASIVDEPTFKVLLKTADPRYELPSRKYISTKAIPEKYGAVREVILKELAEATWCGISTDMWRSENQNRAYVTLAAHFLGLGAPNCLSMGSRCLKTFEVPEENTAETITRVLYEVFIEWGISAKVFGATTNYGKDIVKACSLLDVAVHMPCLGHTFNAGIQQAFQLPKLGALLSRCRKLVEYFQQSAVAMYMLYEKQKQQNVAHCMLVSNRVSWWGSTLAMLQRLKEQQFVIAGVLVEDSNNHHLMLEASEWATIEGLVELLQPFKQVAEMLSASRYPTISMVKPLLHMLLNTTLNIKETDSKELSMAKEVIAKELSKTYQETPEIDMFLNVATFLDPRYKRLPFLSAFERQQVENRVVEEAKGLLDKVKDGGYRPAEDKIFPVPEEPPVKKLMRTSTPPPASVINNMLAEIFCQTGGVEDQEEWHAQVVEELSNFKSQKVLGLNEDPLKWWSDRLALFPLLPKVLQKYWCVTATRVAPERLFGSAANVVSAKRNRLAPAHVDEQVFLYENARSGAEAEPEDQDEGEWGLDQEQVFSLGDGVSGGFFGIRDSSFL

Variants of: B1
Conditions: with astrc_human GRAMD1C

| Variant | effect of a mutation on the interaction |
| --- | --- |
| MGEFNEKKTTCGTVCLKYLLFTYNCCFWLAGLAVMAVGIWTLALKSDYISLLASGTYLATAYILVVAGTVVMVTGVLGCCATFKERRNLLRLYFILLLIIFLLEIIAGILAYAYYQQLNTELKENLKDTMTKRYHQPGHEAVTSAVDQLQQEFHCCGSNNSQDWRDSEWICSQEAGGRVVPDSCCKTVVALCGQRDHASNIYKVEGGCITKLETFIQEHLRVIGAVGIGIACVQVFGMIFTCCLYRSLKLEHY [R171C] | disrupting interaction strength |
| MGEFNEKKTTCGTVCLKYLLFTYNCCFWLAGLAVMAVGIWTLALKSDYISLLASGTYLATAYILVVAGTVVMVTGVLGCCATFKERRNLLRLYFILLLIIFLLEIIAGILAYAYYQQLNTELKENLKDTMTKRYHQPGHEAVTSAVDQLQQEFHCCGSNNSQDWRDSEWIRSQEAGGHVVPDSCCKTVVALCGQRDHASNIYKVEGGCITKLETFIQEHLRVIGAVGIGIACVQVFGMIFTCCLYRSLKLEHY [R178H] | with no effect |

Variants of: B2
Conditions: with rby1f_human RBMY1F

| Variant | effect of a mutation on the interaction |
| --- | --- |
| MSLADELLADLEEAAEEEEGGSYGEEEEEPAIEDVQEETQLDLSGDSVKTIAKLWDSKMFAEIMMKIEEYISKQAKASEVMGPVEAAPEYRVIVDANNLTVEIENEVNIIHKFIRDKYSKRFPELESLVPNALDYIRTVKELGNSLDKCKNNENLQQILTNATIMVVSVTASTTQGQQLSEEELERLEEACDMALELNASKHRIYEYVESRMSFIAPNLSIIIGASTAAKIMGVAGGLTNLSKMPACNIMLLGAQRKTLSGFSSTSVLPHTGYIYHSDIVQSLPPDLRRKAARLVAAKCTLAARVDSFHESTEGKVGYELKDEIERKFDKWQEPPPVKQVKPLPAPLDGQRKKRGGRRYRKMKERLGLTEIRKQANRMSFGEIEEDAYQEDLGFSLGHLGKSGSGRVRQTQVNEATKARISKTLQRTLQKQSVVYGGKSTIRDRSSGTASSVAFTPLQGLEIVNPQAAEKKVAEANQKYFSSMAEFLKVKGEKSGLMST [L107V] | with no effect |

Variants of: B3
Conditions: with TRIM39, Q9HCM9-2

| Variant | effect of a mutation on the interaction |
| --- | --- |
| A489D | disrupting interaction strength |
| P493S | disrupting interaction strength |
| T494M | disrupting interaction strength |

Variants of: B4
Conditions: with birc2_human BIRC2, Q13490
birc2_human BIRC2, Q13490, sequence (Q13490 whole entry): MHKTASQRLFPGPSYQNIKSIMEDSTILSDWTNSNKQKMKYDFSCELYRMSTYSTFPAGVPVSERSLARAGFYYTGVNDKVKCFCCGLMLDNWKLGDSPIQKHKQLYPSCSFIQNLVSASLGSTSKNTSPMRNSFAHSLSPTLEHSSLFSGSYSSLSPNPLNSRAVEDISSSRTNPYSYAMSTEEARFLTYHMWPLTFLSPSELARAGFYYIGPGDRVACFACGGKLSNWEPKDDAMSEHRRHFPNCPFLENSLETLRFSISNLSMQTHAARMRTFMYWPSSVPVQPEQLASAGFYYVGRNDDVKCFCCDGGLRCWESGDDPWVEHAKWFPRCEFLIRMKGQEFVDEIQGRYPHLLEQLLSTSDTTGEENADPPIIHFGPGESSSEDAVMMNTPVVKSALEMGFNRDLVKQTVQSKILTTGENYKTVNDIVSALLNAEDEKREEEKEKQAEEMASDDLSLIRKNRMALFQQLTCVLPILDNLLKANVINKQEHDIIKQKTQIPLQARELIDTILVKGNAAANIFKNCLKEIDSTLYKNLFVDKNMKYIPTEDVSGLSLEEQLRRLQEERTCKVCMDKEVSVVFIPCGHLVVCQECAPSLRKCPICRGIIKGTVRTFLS

| Variant | effect of a mutation on the interaction |
| --- | --- |
| MARRAGGARMFGSLLLFALLAAGVAPLSWDLPEPRSRASKIRVHSRGNLWATGHFMGKKSLEPSSPSPLGTAPHTSLRDQRLQLSHDLLGILLLKKALGVSLSRPAPQIQEAAGTNTAEITPIMGQTQQRGLDCAHPGKVLNGTLLMAPSGCKS | with no effect |

Variants of: B5
Conditions: with zbed1_human ZBED1, O96006

| Variant | effect of a mutation on the interaction |
| --- | --- |
| P77T | disrupting interaction strength |
